In patent publication US20240002514A1 (IGM BIOSCIENCES, published 2024):
Changes are numbered by the printed parent chain. Each block holds one binder with its values, some of them ahead of it.

Experiments:
[1] = target: T1, human PD-L1 expressed on the cell surface (CHO cells expressing human PD-L1; Promega CS187103 / 187103 cells) (human, UniProt Q9NZQ7 19-290); assay: cell-based or functional assay
[2] = target: T1, human PD-L1 expressed on the cell …; assay: cell-based or functional assay; remark: listed apart in the source
[3] = target: T1, human PD-L1 expressed on the cell …; assay: cell-based or functional assay; remark: listed apart in the source
[4] = target: T2, recombinant cynomolgus monkey PD-L1 Fc chimera (Sino Biological, cat #90251-C02H) (cynomolgus monkey, UniProt G7PSE7 19-239); assay: ELISA on directly coated cynomolgus PD-L1 Fc chimera (1 ug/mL), detection anti-human kappa light chain-HRP
T2 construct: also called Cyno PD-L1; Fc part of the bought chimera not given
T2 sequence (G7PSE7 entry or part of it C02H C02H): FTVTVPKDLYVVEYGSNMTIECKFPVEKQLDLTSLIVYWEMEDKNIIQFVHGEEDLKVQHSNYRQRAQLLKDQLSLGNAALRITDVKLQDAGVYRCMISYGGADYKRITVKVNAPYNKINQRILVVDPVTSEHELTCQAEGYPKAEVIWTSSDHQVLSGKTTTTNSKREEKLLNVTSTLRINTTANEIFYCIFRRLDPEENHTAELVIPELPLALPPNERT
Method: (§1) Recombinant human PD-L1 Fc chimera (Sino Biological, cat #10084-H02H), recombinant cynomolgous monkey PD-L1 Fc chimera (Sino Biological, cat #90251-C02H), recombinant mouse PD-L1 Fc chimera (Sino Biologicals, cat #50010-M02H) and recombinant human PD-L2 Fc chimera protein (Sino Biological, cat #10292-H02H) were coated directly onto the ELISA plates at 1 ug/mL by overnight incubation at 4° C. The plates were washed 3× with PBS 0.05% TWEEN® and dried by tapping several times on paper towels. All the plates were blocked with 200 uL of 1% milk for 1 hr at RT. […] Fifty μL of the diluted antibodies were added to the respective wells in all the plates. Positive control antibody (mouse anti-human PD-L1, 29E.2A3, (BioLegend, cat #329702) and its isotype control mouse IgG2b k (BioLegend, cat #400302) were serially diluted 3-fold in 1% milk starting at 3 ug/mL to 0.1 ng/mL and 50 uL of the titrated antibodies were added to their respective plates/wells. Similarly rat anti mouse PD-L1 (BioLegend, cat #124302) and rat IgG2b isotype (BioLegend, cat #400622), anti-human PD-L2 (BioLegend, cat #345502) with mouse IgG1 isotype (BioLegend, cat #4011402) were titrated as above and added to its respective plates/wells. The plates were incubated for 1 hr at RT. […] For the control wells, appropriate secondary antibodies, goat anti mouse HRP (Southern Biotech, cat #1033) and mouse anti rat HRP (Southern Biotech, cat #3070-05), were diluted and incubated as above. After repeating the wash and drying step, the plates were developed for 20-30 min with 50 uL TMB substrate (BD OPTEIA®, cat #555214). The reaction was stopped with 50 uL of 2N H2SO4 and absorbance at 450 nm was read on a SPECTRAMAX® Gemini™ spectrophotometer.

[5] = target: T3, recombinant mouse PD-L1 Fc chimera (Sino Biologicals, cat #50010-M02H) (mouse, UniProt Q9EP73 19-238); assay: ELISA on directly coated mouse PD-L1 Fc chimera (1 ug/mL), detection anti-human kappa light chain-HRP
T3 construct: Fc part of the bought chimera not given
T3 sequence (Q9EP73 19-238, stated change not applied): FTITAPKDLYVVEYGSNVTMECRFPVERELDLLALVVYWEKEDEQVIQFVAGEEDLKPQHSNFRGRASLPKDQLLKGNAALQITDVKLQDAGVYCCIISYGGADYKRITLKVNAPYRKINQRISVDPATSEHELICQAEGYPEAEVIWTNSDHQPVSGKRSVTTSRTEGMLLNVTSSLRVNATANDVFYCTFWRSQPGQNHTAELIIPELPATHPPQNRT
Method: as §1

[6] = target: T4, recombinant human PD-L2 Fc chimera protein (Sino Biological, cat #10292-H02H) (human, UniProt Q9BQ51 20-219); assay: ELISA on directly coated human PD-L2 Fc chimera (1 ug/mL), detection anti-human kappa light chain-HRP
T4 construct: Fc part of the bought chimera not given
T4 sequence (looked up): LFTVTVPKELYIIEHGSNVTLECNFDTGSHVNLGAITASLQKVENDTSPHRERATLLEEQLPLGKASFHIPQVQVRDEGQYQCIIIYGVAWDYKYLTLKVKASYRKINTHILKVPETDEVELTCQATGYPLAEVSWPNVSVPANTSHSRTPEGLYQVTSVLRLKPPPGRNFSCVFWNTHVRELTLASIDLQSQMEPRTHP
Method: as §1

[7] = target: T1, human PD-L1 expressed on the cell …; assay: flow cytometry competition on CHO cells expressing human PD-L1; cells pre-incubated with unlabeled antibody, then Alexa Fluor 647-labeled 3C5 (1 µg/mL)
Method: (§2) Antibody cross-blocking analysis was conducted by the following method. […] Fluorescent staining intensities were determined using the FACSCalibur™ system. Competition of by the identical antibody was a positive control while the lack of competition by the irrelevant antibody was a negative control.

[8] = target: T1, human PD-L1 expressed on the cell …; assay: flow cytometry competition on CHO cells expressing human PD-L1; cells pre-incubated with unlabeled antibody, then Alexa Fluor 647-labeled S70 (1 µg/mL)
Method: as §2

T1 sequence (Q9NZQ7 19-290): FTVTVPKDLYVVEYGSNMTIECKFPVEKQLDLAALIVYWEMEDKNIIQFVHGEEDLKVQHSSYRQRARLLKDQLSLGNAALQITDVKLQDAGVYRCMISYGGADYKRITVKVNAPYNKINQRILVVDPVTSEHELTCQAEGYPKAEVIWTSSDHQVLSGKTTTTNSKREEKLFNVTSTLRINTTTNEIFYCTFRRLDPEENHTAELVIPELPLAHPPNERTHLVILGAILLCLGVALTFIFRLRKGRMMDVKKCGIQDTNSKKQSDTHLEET

EC50, PD-1/PD-L1 blockade (PDL1 Blockade, luciferase signal) [1]: 0.296 nM
B3: h3C5H4-h3C5L2 (humanized 3C5, IgG) (antibody, V domains shown)
VH: QVQLQESGPGLVKPSETLSITCTVSGFSLTSYDISWIRQPPGKGLEWLGVIWTGVGTNYNPSFKSRLTISKDNSKNQVSLKMSSLTAADTAVYYCVRDPYYYGMDYWGQGTLVTVSS
VL: DIQMTQSPSSLSASVGDRITITCRASQDISIWLSWYQQKPGKAPKLLIYKASNLHTGVPSRFSGSGSGTDFTLTISSLQPEDFATYYCLQSQSFPRTFGQGTKLEIKR

EC50, PD-1/PD-L1 blockade (PDL1 Blockade, luciferase signal) [1]: 0.381 nM
B4: h3C5H2-h3C5L2 (humanized 3C5, IgG) (antibody, V domains shown)
VH: B3 VH with I20L, F63L, L67V, N73T, V78F, M82L, L85V, V96A
VL: B3 VL

The remaining lines, values behind:

B1: h3C5H3-h3C5L2 (humanized 3C5, IgG) (antibody, V domains shown)
VH: B3 VH with I37V, N73T
VL: B3 VL
EC50, PD-1/PD-L1 blockade (PDL1 Blockade, luciferase signal) [1]: 0.214 nM

B2: h3C5H1-h3C5L1 (humanized 3C5, IgG) (antibody, V domains shown)
VH: B3 VH with I20L, L48I, F63L, L67V, K71V, N73T, V78F, M82L, L85V, V96A
VL: B3 VL with I19V
EC50, PD-1/PD-L1 blockade (PDL1 Blockade, luciferase signal) [1]: 0.221 nM

B5: 3C5-2G12 IgM antibody (antibody)
heavy: QVQLKESGPGLVAPSQSLSITCTVSGFSLTSYDISWVRQPPGKGLEWLGVIWTGVGTNYNSAFMSRLSISKDNSKSQVFLKMNSLQTDDTAMYYCVRDPYYYGMDYWGQGTSVTVSSGSASAPTLFPLVSCENSPSDTSSVAVGCLAQDFLPDSITFSWKYKNNSDISSTRGFPSVLRGGKYAATSQVLLPSKDVMQGTDEHVVCKVQHPNGNKEKNVPLPVIAELPPKVSVFVPPRDGFFGNPRKSKLICQATGFSPRQIQVSWLREGKQVGSGVTTDQVQAEAKESGPTTYKVTSTLTIKESDWLSQSMFTCRVDHRGLTFQQNASSMCVPDQDTAIRVFAIPPSFASIFLTKSTKLTCLVTDLTTYDSVTISWTRQNGEAVKTHTNISESHPNATFSAVGEASICEDDWNSGERFTCTVTHTDLPSPLKQTISRPKGVALHRPDVYLLPPAREQLNLRESATITCLVTGFSPADVFVQWMQRGQPLSPEKYVTSAPMPEPQAPGRYFAHSILTVSEEEWNTGETYTCVVAHEALPNRVTERTVDKSTGKPTLYNVSLVMSDTAGTCY
light: DIQMNQSPSSLSASLGDTITITCRASQDISIWLSWYQQKPGNIPELLIYKASNLHTGVPPRFSGSGSGTDFTLTISSLQPEDIATYYCLQSQSFPRTFGGGTKLEIKRTVAAPSVFIFPPSDEQLKSGTASVVCLLNNFYPREAKVQWKVDNALQSGNSQESVTEQDSKDSTYSLSSTLTLSKADYEKHKVYACEVTHQGLSSPVTKSFNRGEC
EC50 in the PD-1/PD-L1 blockade assay (luciferase reporter activity, 4 parameter curve fit) [2]: 61000 nM
EC50, PD-1/PD-L1 blockade (PDL1 Blockade, luciferase signal) [1]: 0.094 nM
EC50, PD-1/PD-L1 blockade (% PDL1 Blockade, NFAT-luciferase reporter) [3]: 0.061 nM
EC50 (read off the curve) [4]: ~7 ng/mL
binding result [5]: no binding (tested: 3 ug/mL)
binding result [6]: no binding (tested: 3 ug/mL)

B6: 3C5-2G12 IgG1 antibody (antibody)
heavy: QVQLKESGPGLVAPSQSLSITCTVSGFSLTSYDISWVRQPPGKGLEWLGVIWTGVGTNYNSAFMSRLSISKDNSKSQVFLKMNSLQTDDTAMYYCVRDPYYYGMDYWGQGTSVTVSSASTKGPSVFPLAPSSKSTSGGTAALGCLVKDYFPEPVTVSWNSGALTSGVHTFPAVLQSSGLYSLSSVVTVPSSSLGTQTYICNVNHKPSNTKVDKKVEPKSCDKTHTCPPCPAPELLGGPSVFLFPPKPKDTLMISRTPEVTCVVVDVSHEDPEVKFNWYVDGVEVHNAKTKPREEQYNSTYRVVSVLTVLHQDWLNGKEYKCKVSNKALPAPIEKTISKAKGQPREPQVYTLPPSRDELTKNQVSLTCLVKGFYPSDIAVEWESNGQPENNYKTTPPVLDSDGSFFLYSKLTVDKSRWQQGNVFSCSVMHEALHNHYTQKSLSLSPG
light: B5 light
notes: also called 3C5 (IgG); 3C5 antibody (IgG format)
IC50 (read off the curve) [7]: ~10 ng/mL
EC50, PD-1/PD-L1 blockade (PDL1 Blockade, luciferase signal) [1]: 0.251 nM
IC50 (read off the curve) [8]: ~20 ng/mL
EC50, PD-1/PD-L1 blockade (% PDL1 Blockade, NFAT-luciferase reporter) [3]: 0.21 nM
EC50 (read off the curve) [4]: ~6 ng/mL
binding result [5]: no binding (tested: 3 ug/mL)
binding result [6]: no binding (tested: 3 ug/mL)

B7: 3C5-2G12 IgM + J antibody (antibody)
heavy: B5 heavy
light: B5 light
chain: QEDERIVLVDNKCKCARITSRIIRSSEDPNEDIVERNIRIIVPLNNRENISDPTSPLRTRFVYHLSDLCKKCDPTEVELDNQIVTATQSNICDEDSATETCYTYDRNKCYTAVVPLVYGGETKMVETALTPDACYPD
notes: also called 3C5.2G12 IgM+wtJ; 3C5.2G12 IgM+J chain
EC50 in the PD-1/PD-L1 blockade assay (luciferase reporter activity, 4 parameter curve fit) [2]: 96000 nM
EC50, PD-1/PD-L1 blockade (% PDL1 Blockade, NFAT-luciferase reporter) [3]: 0.096 nM
EC50 (read off the curve) [4]: ~8 ng/mL
binding result [5]: no binding (tested: 3 ug/mL)
binding result [6]: no binding (tested: 3 ug/mL)
